Experimental data as given in patent publication US9994845.

Target: fluorescently-labeled taxol-stabilized microtubules

B1: purified recombinant full-length Kif19 (protein)
chain: MKDSGDSKDQQLMVALRVRPISVAELEEGATLIAHKVDEQMVVLMDPMEDPDDILRAHRSREKSYLFDVAFDFTATQEMVYQATTKSLIEGVISGYNATVFAYGPTGCGKTYTMLGTDQEPGIYVQTLNDLFRAIEETSNDMEYEVSMSYLEIYNEMIRDLLNPSLGYLELREDSKGVIQVAGITEVSTINAKEIMQLLMKGNRQRTQEPTAANQTSSRSHAVLQVTVRQRSRVKNILQEVRQGRLFMIDLAGSERASQTQNRGQRMKEGAHINRSLLALGNCINALSDKGSNKYINYRDSKLTRLLKDSLGGNSRTVMIAHISPASSAFEESRNTLTYAGRAKNIKTRVKQNLLNVSYHIAQYTSIIADLRGEIQRLKRKIDEQTGRGQARGRQDRGDIRHIQAEVQLHSGQGEKAGMGQLREQLASAFQEQMDVRRRLLELENRAMEVQIDTSRHLLTIAGWKHEKSRRALKWREEQRKECYAKDDSEKDSDTGDDQPDILEPPEVAAARESIAALVDEQKQLRKQKLALEQRCRELRARGRRLEETLPRRIGSEEQREVLSLLCRVHELEVENTEMQSHALLRDGALRHRHEAVRRLEQHRSLCDEIIQGQRQIIDDYNLAVPQRLEELYEVYLRELEEGSLEQATIMDQVASRALQDSSLPKITPAGTSLTPDSDLESVKTLSSDAQHLQNSALPPLSTESEGHHVFKAGTGAWQAKSSSVPTPPPIQLGSLVTQEAPAQDSLGSWINSSPDSSENLSEIPLSHKERKEILTGTKCIWVKAARRRSRALGTEGRHLLAPATERSSLSLHSLSEGDDARPPGPLACKRPPSPTLQHAASEDNLSSSTGEAPSRAVGHHGDGPRPWLRGQKKSLGKKREESLEAKRRKRRSRSFEVTGQGLSHPKTHLLGPHQAERISDHRMPVCRHPAPGIRHLGKVTLPLAKVKLPPSQNTGPGDSSPLAVPPNPGGGSRRATRGPRLPHGTSTHGKDGCSRHN
- microtubule depolymerization in vitro (TIRF time series, 5 minutes): Kif-19 depolymerizes microtubules in vitro
